Laboratory results from patent publication US20220177587A1, “METHODS AND USES OF VARIANT CD80 FUSION PROTEINS AND RELATED CONSTRUCTS” (Alpine Immune Sciences, Inc., priority 2018, published 2022).

Columns and labels:
CD28 (human) [1] = target: CD28 (human) (UniProt P10747); test: flow cytometry, Jurkat cells (CD28)
human CTLA-4 (human) = human CTLA-4 (human) (UniProt P16410); test: flow cytometry, CHO cells expressing CTLA4
PD-L1 (human) [2] = target: PD-L1 (human) (UniProt Q9NZQ7); test: flow cytometry, CHO cells expressing PD-L1
Sequence of PD-L1 (human) (Q9NZQ7 19-290): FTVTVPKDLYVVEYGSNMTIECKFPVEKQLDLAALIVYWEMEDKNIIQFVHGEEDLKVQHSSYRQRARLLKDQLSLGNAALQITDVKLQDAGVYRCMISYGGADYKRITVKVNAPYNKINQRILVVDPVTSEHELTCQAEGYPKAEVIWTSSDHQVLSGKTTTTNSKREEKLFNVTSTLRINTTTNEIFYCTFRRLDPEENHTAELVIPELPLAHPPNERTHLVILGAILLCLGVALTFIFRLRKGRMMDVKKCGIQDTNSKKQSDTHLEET

PD-L1 (human) [3] = target: PD-L1 (human) (UniProt Q9NZQ7)
CD28 (human) [4] = target: CD28 (human) (UniProt P10747)
PD-L1 (human) [5] = target: PD-L1 (human) (UniProt Q9NZQ7); test: flow cytometry, CHO cells stably expressing PD-L1

Sequence of human CTLA-4 (human) (P16410 36-223): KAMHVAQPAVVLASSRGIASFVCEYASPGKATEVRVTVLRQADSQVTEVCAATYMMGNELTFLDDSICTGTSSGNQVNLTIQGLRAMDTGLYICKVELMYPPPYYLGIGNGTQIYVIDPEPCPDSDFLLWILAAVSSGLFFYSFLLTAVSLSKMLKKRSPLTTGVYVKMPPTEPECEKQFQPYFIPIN

Row | Substance | MFI at 33.3 nM (CD28 (human) [1]) [MFI] | MFI at 33.3 nM (human CTLA-4 (human)) [MFI] | Jurkat/IL2 reporter RLU at 50 nM, K562/OKT3/PD-L1 aAPC (PD-L1 (human) [3]) [RLU] | Jurkat/IL2 reporter RLU at 50 nM, K562/OKT3/PD-L1 aAPC (CD28 (human) [4]) [RLU] | further results
1 | CD80 T13R/Q33R/E35D/M38I/M47L/V68M/L85M/R94Q IgV-Fc (Fc fusion) | 15.2 | 19100 |  |  | MFI at 33.3 nM (PD-L1 (human) [2]): 20400 MFI
2 | CD80 E35D/M47I/T62S/L85Q IgV-Fc (inert) (Fc fusion) |  |  | 1570 | 1570 | 
3 | CD80 E35D/T41S/M47V/L97Q IgV-Fc (inert) (Fc fusion) |  |  | 594 | 594 | 
4 | CD80 Q33L/E35D/M47V/T62S/V68M/L85M IgV-Fc (Fc fusion) | 15 | 86 |  |  | 
5 | CD80 E35D/D46E/M47I/T62A/V68M/L85M/Y87C IgV-Fc (Fc fusion) |  | 17000 |  |  | 
6 | CD80 Q33L/E35D/M47I/N48D/A71G IgV-Fc (inert) (Fc fusion) |  |  | 213 | 213 | 
7 | CD80 H18Y/E35D/M47L/V68M/A71G/L85M IgV-Fc (Fc fusion) |  | 19500 |  |  | MFI at 33.3 nM (PD-L1 (human) [2]): 18700 MFI
8 | CD80 T13R/Q27L/Q33L/E35D/T41S/M47V/N48K/V68M/L85M IgV-Fc (Fc fusion) | 14.6 | 109 |  |  | Fold change to WT CD80 (CD28 (human) [1]): 0.5 fold; Fold change to WT CD80 (PD-L1 (human) [2]): 63.5 fold; MFI at 33.3 nM (PD-L1 (human) [2]): 3270 MFI
9 | CD80 E35D/D46E/M47L/V68M/T79M/L85M/L97Q IgV-Fc (Fc fusion) | 14 | 96 |  |  | Fold change to WT CD80 (CD28 (human) [1]): 0.5 fold; Fold change to WT CD80 (PD-L1 (human) [2]): 89.7 fold; MFI at 33.3 nM (PD-L1 (human) [2]): 4620 MFI
10 | CD80 V22D/E35D/M47L/L70M/L97Q IgV-Fc (inert) (Fc fusion) |  |  | 1540 | 1540 | 
11 | CD80 E35D/T41S/M43I/M47L/A71G IgV-Fc (inert) (Fc fusion) |  |  | 1540 | 1540 | 
12 | CD80 H18Y/V22A/E35D/M47V/T62S/A71G IgV-Fc (inert) (Fc fusion) |  |  | 1380 | 1380 | 
13 | CD80 E35D/D46V/M47L/V68M/L85Q/E88D IgV-Fc (inert) (Fc fusion) |  |  | 1460 | 1460 | 
14 | CD80 E35D/M47V/V68M/L85M IgV-Fc (Fc fusion) | 201 | 16000 |  |  | MFI at 33.3 nM (PD-L1 (human) [2]): 9180 MFI
15 | CD80 H18Y/E35D/M47L/Y53F/V68M/A71G IgV-Fc (Fc fusion) | 15.7 | 146 |  |  | Fold change to WT CD80 (CD28 (human) [1]): 0.5 fold; Fold change to WT CD80 (PD-L1 (human) [2]): 99.1 fold; MFI at 33.3 nM (PD-L1 (human) [2]): 5100 MFI
16 | CD80 Q33L/E35D/M43I/Y53F/T62S/L85Q IgV-Fc (inert) (Fc fusion) |  |  | 168 | 168 | 

Row | Substance | MFI at 33.3 nM (CD28 (human) [1]) [MFI] | MFI at 33.3 nM (human CTLA-4 (human)) [MFI] | Jurkat/IL2 reporter RLU at 50 nM, K562/OKT3/PD-L1 aAPC (PD-L1 (human) [3]) [RLU] | Jurkat/IL2 reporter RLU at 50 nM, K562/OKT3/PD-L1 aAPC (CD28 (human) [4]) [RLU] | further results
17 | CD80 A26E/E35D/M47L/A71G IgV-Fc (inert) (Fc fusion) |  |  | 1750 | 1750 | 
18 | CD80 V22A/E35D/M47I/Y87N IgV-Fc (inert) (Fc fusion) |  |  | 1390 | 1390 | 
19 | CD80 Q33R/E35D/M38I/M47L/V68M IgV-Fc (Fc fusion) | 15 | 107 |  |  | Fold change to WT CD80 (CD28 (human) [1]): 0.5 fold; Fold change to WT CD80 (PD-L1 (human) [2]): 320 fold; MFI at 33.3 nM (PD-L1 (human) [2]): 16500 MFI
20 | CD80 E35D/D46E/M47V/V68M/L85Q IgV-Fc (Fc fusion) |  | 15500 |  |  | MFI at 33.3 nM (PD-L1 (human) [2]): 1720 MFI
21 | CD80 E35D/K37E/M47V/N48D/L85Q/D90N IgV-Fc (inert) (Fc fusion) |  |  | 851 | 851 | 
22 | CD80 E35D/T41S/M43V/M47I/L70M/A71G IgV-Fc (inert) (Fc fusion) |  |  | 1670 | 1670 | 
23 | CD80 H18Y/E35D/V68M/A71G/R94Q/E95V IgV-Fc (Fc fusion) | 16 | 18300 |  |  | MFI at 33.3 nM (PD-L1 (human) [2]): 15000 MFI
24 | CD80 T28Y/Q33H/E35D/D46V/M47I/A71G IgV-Fc (inert) (Fc fusion) |  |  | 580 | 580 | 
25 | CD80 S21P/E35D/K37E/D46E/M47I/V68M IgV-Fc (Fc fusion) | 540 | 20600 |  |  | 
26 | CD80 E35D/M47V/V68M/L85M/Y87D IgV-Fc (Fc fusion) |  | 13900 |  |  | MFI at 33.3 nM (PD-L1 (human) [2]): 1720 MFI
27 | CD80 E35D/M47V/A71G IgV-Fc (inert) (Fc fusion) |  |  | 1190 | 1190 | 
28 | CD80 T13R/Q33L/E35D/M47V/T62S/V68M/L85M IgV-Fc (Fc fusion) | 16 | 105 |  |  | Fold change to WT CD80 (CD28 (human) [1]): 0.5 fold; Fold change to WT CD80 (PD-L1 (human) [2]): 77 fold; MFI at 33.3 nM (PD-L1 (human) [2]): 3970 MFI
29 | CD80 E35D/M47V/N48K/V68M/K89N IgV-Fc, GS(G4S)5 linker (Fc fusion) |  |  |  |  | MFI at 33.3 nM (PD-L1 (human) [5]): 22700 MFI
30 | CD80 E35D/M43I/M47V/K89N IgV-Fc (inert) (Fc fusion) |  |  | 1090 | 1090 | 
31 | CD80 R29H/E35D/M43V/M47I/I49V IgV-Fc (inert) (Fc fusion) |  |  | 227 | 227 | 

Continued, in another order:

Row | MFI at 33.3 nM (CD28 (human) [1]) [MFI] | MFI at 33.3 nM (human CTLA-4 (human)) [MFI] | Jurkat/IL2 reporter RLU at 50 nM, K562/OKT3/PD-L1 aAPC (PD-L1 (human) [3]) [RLU] | Jurkat/IL2 reporter RLU at 50 nM, K562/OKT3/PD-L1 aAPC (CD28 (human) [4]) [RLU] | Substance | further results
32 | 13.8 | 193 |  |  | CD80 T13R/Q33R/E35D/M38I/M47L/V68M IgV-Fc (Fc fusion) | Fold change to WT CD80 (PD-L1 (human) [2]): 87 fold; MFI at 33.3 nM (PD-L1 (human) [2]): 4480 MFI
33 |  |  | 1020 | 1020 | CD80 E35D/T41S/M47V/A71G/K89N IgV-Fc (inert) (Fc fusion) | 
34 |  |  | 1040 | 1040 | CD80 E35D/D46E/M47V/A71D/D90G IgV-Fc (inert) (Fc fusion) | 
35 |  |  | 1190 | 1190 | CD80 E35D/A71G IgV-Fc (inert) (Fc fusion) | 
36 |  |  | 1230 | 1230 | CD80 H18Y/E35D/N48K IgV-Fc (inert) (Fc fusion) | 
37 | 16 | 91 |  |  | CD80 R29C/E35D/M47L/V68M/A71G/L85M IgV-Fc (Fc fusion) | 
38 |  |  | 1140 | 1140 | CD80 V22D/E35D/M47L/L85Q IgV-Fc (inert) (Fc fusion) | 
39 | 16.7 | 139 |  |  | CD80 H18Y/E35D/M38I/M47L/V68M/L85M IgV-Fc (Fc fusion) | Fold change to WT CD80 (CD28 (human) [1]): 0.5 fold; Fold change to WT CD80 (PD-L1 (human) [2]): 69.7 fold; MFI at 33.3 nM (PD-L1 (human) [2]): 3590 MFI
40 | 4040 | 18600 |  |  | CD80 H18Y/E35D/M47I/V68M/Y87N IgV-Fc (Fc fusion) | MFI at 33.3 nM (PD-L1 (human) [2]): 15000 MFI
41 |  |  | 1220 | 1220 | CD80 E35D/M47V/A71G/E88D IgV-Fc (inert) (Fc fusion) | 
42 | 15 | 178 |  |  | CD80 Q27L/Q33L/E35D/T41S/M47V/N48K/V68M/L85M IgV-Fc (Fc fusion) | Fold change to WT CD80 (CD28 (human) [1]): 0.5 fold; Fold change to WT CD80 (PD-L1 (human) [2]): 320 fold; MFI at 33.3 nM (PD-L1 (human) [2]): 16500 MFI
43 |  |  | 1720 | 1720 | CD80 E35D/Y53H/A71G/D90G/L97R IgV-Fc (inert) (Fc fusion) | 
44 |  |  | 1440 | 1440 | CD80 E35D/M47I/L85Q/D90G IgV-Fc (inert) (Fc fusion) | 
45 | 191 | 16900 |  |  | CD80 V22D/E24D/E35D/M47V/V68M IgV-Fc (Fc fusion) | 
46 |  |  | 1500 | 1500 | CD80 I30V/E35D/M47V/A71G/A91V IgV-Fc (inert) (Fc fusion) | 
47 | 15.7 | 141 |  |  | CD80 T13R/Q33L/E35D/M47L/V68M/L85M IgV-Fc (Fc fusion) | Fold change to WT CD80 (CD28 (human) [1]): 0.5 fold; Fold change to WT CD80 (PD-L1 (human) [2]): 62.7 fold; MFI at 33.3 nM (PD-L1 (human) [2]): 3230 MFI
48 |  |  | 282 | 282 | CD80 E35D/A71D/L72V/R73H/E81K IgV-Fc (inert) (Fc fusion) | 
49 |  |  | 1320 | 1320 | CD80 E35D/M38T/D46E/M47V/N48S IgV-Fc (inert) (Fc fusion) | 
50 |  |  | 1380 | 1380 | CD80 E35D/D46E/M47V/N63D/L85Q IgV-Fc (inert) (Fc fusion) | 
51 |  |  | 897 | 897 | CD80 E35D/M47V/N48T/L85Q IgV-Fc (inert) (Fc fusion) | 
52 |  |  | 1320 | 1320 | CD80 E35D/M47L/A71G/L85M/F92Y IgV-Fc (inert) (Fc fusion) | 
53 |  |  | 680 | 680 | CD80 E35D/M38T/M43V/M47V/N48R/L85Q IgV-Fc (inert) (Fc fusion) | 
54 |  |  | 1580 | 1580 | CD80 E35D/M47I/Y87Q/K89E IgV-Fc (inert) (Fc fusion) | 
55 | 284 | 20100 |  |  | CD80 S21P/E35D/K37E/D46E/M47I/V68M/R94L IgV-Fc (Fc fusion) | 
56 | 334 | 18400 |  |  | CD80 H18Y/E35D/M47L/Y53F/V68M/A71G/K93R/E95V IgV-Fc (Fc fusion) | Fold change to WT CD80 (human CTLA-4 (human)): 10.5 fold; MFI at 33.3 nM (PD-L1 (human) [2]): 23400 MFI
57 |  |  | 1270 | 1270 | CD80 E35D/T41S/M43I/M47V/A71G IgV-Fc (inert) (Fc fusion) | 
